According to PMC6946400:

Key:
VASH1 full-length 44 kDa = assay: SPR; conditions: single-cycle kinetics; HBS-EP: 10 mM Hepes pH 7.4, 150 mM NaCl, 3 mM EDTA, 0.005% surfactant P20 (stated for immobilization); SA chip, Biacore T200, protein 16.25-300 nM, 1:1 …
[1] = test system: VASH1 27-kDa N-terminal part-GST; assay: SPR; conditions: HBS-EP: 10 mM Hepes pH 7.4, 150 mM NaCl, 3 mM EDTA, 0.005% surfactant P20 (stated for immobilization); SA chip, Biacore T200, protein 16.25-300 nM, 1:1 …

**Q.** For EMCV IRES, which Kd (VASH1 full-length 44 kDa) is on record?
**A.** 9.6 nM

**Q.** Which Kd (VASH1 full-length 44 kDa) does the source give for FGF1 IRES here?
**A.** 6.5 nM

**Q.** What about the Kd [1] of the same substance?
**A.** 2800 nM

**Q.** With VEGFAa IRES as the substance, how does the Kd (VASH1 full-length 44 kDa) read?
**A.** 8 nM
